Test results from US20200317768A1 (published 2020).

T1: human FcγRIIb extracellular domain with C-terminal His-tag (human, UniProt P31994 43-217)
T1 construct: also called human FcgRIIb
T1 sequence: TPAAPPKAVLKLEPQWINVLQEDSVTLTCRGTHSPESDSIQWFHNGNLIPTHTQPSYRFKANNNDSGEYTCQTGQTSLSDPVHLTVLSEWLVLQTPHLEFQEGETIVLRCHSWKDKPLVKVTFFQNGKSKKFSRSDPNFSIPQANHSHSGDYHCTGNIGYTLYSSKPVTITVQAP


How the values were obtained:
[1] = target: T1, human FcγRIIb extracellular domain with …; assay: SPR (BIACORE), antibody captured, FcgR analyte
[2] = target: T2, human FcγRIIIaV extracellular domain with C-terminal His-tag (human, UniProt P08637 17-208); assay: SPR (BIACORE), antibody captured, FcgR analyte
T2 construct: also called human FcgRIIIaV
T2 sequence (P08637 17-208 F176V): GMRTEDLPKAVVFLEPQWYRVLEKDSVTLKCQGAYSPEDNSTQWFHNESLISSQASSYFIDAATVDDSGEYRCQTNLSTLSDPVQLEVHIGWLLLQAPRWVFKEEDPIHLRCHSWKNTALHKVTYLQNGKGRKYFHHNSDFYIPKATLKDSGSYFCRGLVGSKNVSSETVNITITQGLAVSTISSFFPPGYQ

Row | Kd [1] [µM] | Kd [2] [µM] | Binder
1 | 3.3 | 17 | M103205H795-MY340/M103202L889-SK1 (antibody, human IgG1, kappa, Substitutions introduced into M103205H795-SG1, expressed with M103202L889-SK1 as light chain; EU numbering) heavy: QVTLKESGPVLVKPTETLTLTCTVSGIDLSHDDISWVRQAPGKGLEWVGIISYAGSTYYASWAKGRLTISKDTSKNQVVLTMTNMDPVDTATYYCARGVPAYSHGGDLWGQGTLVTVSSASTKGPSVFPLAPSSKSTSGGTAALGCLVKDYFPEPVTVSWNSGALTSGVHTFPAVLQSSGLYSLSSVVTVPSSSLGTQTYICNVNHKPSNTKVDKKVEPKSCDKTHTCPPCPAPELLLGPSVFLFPPKPKDTLMISRTPEVTCVVVDVSDEDPEVKFNWYVDGVEVHNAKTKPREELYNSTYRVVSVLTVLHQDWLNGKEYKCKVSNKALPKPIEKTISKAKGQPREPQVYTLPPSREEMTKNQVSLTCLVKGFYPSDIAVEWESNGQPENNYKTTPKVLDSDGSFFLYSKLTVDKSRWQQGNVFSCSVMHEALHNHYTQKSLSLSP light: DIVMTQSPATLSLSPGERATLSCTSSQSVYHANWLSWFQQKPGQPPKLLIYWASTLAYGVPSRFSGSGSGTDFTLTISSLQPEDAATYYCAGGYGGGRYAFGQGTKVEIKRTVAAPSVFIFPPSDEQLKSGTASVVCLLNNFYPREAKVQWKVDNALQSGNSQESVTEQDSKDSTYSLSSTLTLSKADYEKHKVYACEVTHQGLSSPVTKSFNRGEC
2 | 3.9 | 25 | M103205H795-MY342/M103202L889-SK1 (antibody, human IgG1, kappa, Substitutions introduced into M103205H795-SG1, expressed with M103202L889-SK1 as light chain; EU numbering) heavy: QVTLKESGPVLVKPTETLTLTCTVSGIDLSHDDISWVRQAPGKGLEWVGIISYAGSTYYASWAKGRLTISKDTSKNQVVLTMTNMDPVDTATYYCARGVPAYSHGGDLWGQGTLVTVSSASTKGPSVFPLAPSSKSTSGGTAALGCLVKDYFPEPVTVSWNSGALTSGVHTFPAVLQSSGLYSLSSVVTVPSSSLGTQTYICNVNHKPSNTKVDKKVEPKSCDKTHTCPPCPAPELLLGPSVFLFPPKPKDTLMISRTPEVTCVVVDVSDEDPEVKFNWYVDGVEVHNAKTKPREELYNSTYRVVSVLTVLHQDWLNGKEYKCKVSNKALPKPIEKTISKAKGQPREPQVYTLPPSREEMTKNQVSLTCLVKGFYPSDIAVEWESNGQPENNYKTTPMVLDSDGSFFLYSKLTVDKSRWQQGNVFSCSVMHEALHNHYTQKSLSLSP light: DIVMTQSPATLSLSPGERATLSCTSSQSVYHANWLSWFQQKPGQPPKLLIYWASTLAYGVPSRFSGSGSGTDFTLTISSLQPEDAATYYCAGGYGGGRYAFGQGTKVEIKRTVAAPSVFIFPPSDEQLKSGTASVVCLLNNFYPREAKVQWKVDNALQSGNSQESVTEQDSKDSTYSLSSTLTLSKADYEKHKVYACEVTHQGLSSPVTKSFNRGEC
3 | 4.6 | 24 | M103205H795-MY386/M103202L889-SK1 (antibody, human IgG1, kappa, Substitutions introduced into M103205H795-SG1, expressed with M103202L889-SK1 as light chain; EU numbering) heavy: QVTLKESGPVLVKPTETLTLTCTVSGIDLSHDDISWVRQAPGKGLEWVGIISYAGSTYYASWAKGRLTISKDTSKNQVVLTMTNMDPVDTATYYCARGVPAYSHGGDLWGQGTLVTVSSASTKGPSVFPLAPSSKSTSGGTAALGCLVKDYFPEPVTVSWNSGALTSGVHTFPAVLQSSGLYSLSSVVTVPSSSLGTQTYICNVNHKPSNTKVDKKVEPKSCDKTHTCPPCPAPELLLGPSVFLFPPKPKDTLMISRTPEVTCVVVDVSDEDPEVKFNWYVDGVEVHNAKTKPREELYNSTYRVVSVLTVLHQDWLNGKEYKCKVSNTALPKPIEKTISKAKGQPREPQVYTLPPSREEMTKNQVSLTCLVKGFYPSDIAVEWESNGQPENNYKTTPPVLDSDGSFFLYSKLTVDKSRWQQGNVFSCSVMHEALHNHYTQKSLSLSP light: DIVMTQSPATLSLSPGERATLSCTSSQSVYHANWLSWFQQKPGQPPKLLIYWASTLAYGVPSRFSGSGSGTDFTLTISSLQPEDAATYYCAGGYGGGRYAFGQGTKVEIKRTVAAPSVFIFPPSDEQLKSGTASVVCLLNNFYPREAKVQWKVDNALQSGNSQESVTEQDSKDSTYSLSSTLTLSKADYEKHKVYACEVTHQGLSSPVTKSFNRGEC
4 | 1.8 | 7 | M103205H795-MY341/M103202L889-SK1 (antibody, human IgG1, kappa, Substitutions introduced into M103205H795-SG1, expressed with M103202L889-SK1 as light chain; EU numbering) heavy: QVTLKESGPVLVKPTETLTLTCTVSGIDLSHDDISWVRQAPGKGLEWVGIISYAGSTYYASWAKGRLTISKDTSKNQVVLTMTNMDPVDTATYYCARGVPAYSHGGDLWGQGTLVTVSSASTKGPSVFPLAPSSKSTSGGTAALGCLVKDYFPEPVTVSWNSGALTSGVHTFPAVLQSSGLYSLSSVVTVPSSSLGTQTYICNVNHKPSNTKVDKKVEPKSCDKTHTCPPCPAPELLLGPSVFLFPPKPKDTLMISRTPEVTCVVVDVSDEDPEVKFNWYVDGVEVHNAKTKPREELYNSTYRVVSVLTVLHQDWLNGKEYKCKVSNTALPKPIEKTISKAKGQPREPQVYTLPPSREEMTKNQVSLTCLVKGFYPSDIAVEWESNGQPENNYKTTPKVLDSDGSFFLYSKLTVDKSRWQQGNVFSCSVMHEALHNHYTQKSLSLSP light: DIVMTQSPATLSLSPGERATLSCTSSQSVYHANWLSWFQQKPGQPPKLLIYWASTLAYGVPSRFSGSGSGTDFTLTISSLQPEDAATYYCAGGYGGGRYAFGQGTKVEIKRTVAAPSVFIFPPSDEQLKSGTASVVCLLNNFYPREAKVQWKVDNALQSGNSQESVTEQDSKDSTYSLSSTLTLSKADYEKHKVYACEVTHQGLSSPVTKSFNRGEC
5 | 1.1 | 3.5 | M103205H795-MY389/M103202L889-SK1 (antibody, human IgG1, kappa, Substitutions introduced into M103205H795-SG1, expressed with M103202L889-SK1 as light chain; EU numbering) heavy: QVTLKESGPVLVKPTETLTLTCTVSGIDLSHDDISWVRQAPGKGLEWVGIISYAGSTYYASWAKGRLTISKDTSKNQVVLTMTNMDPVDTATYYCARGVPAYSHGGDLWGQGTLVTVSSASTKGPSVFPLAPSSKSTSGGTAALGCLVKDYFPEPVTVSWNSGALTSGVHTFPAVLQSSGLYSLSSVVTVPSSSLGTQTYICNVNHKPSNTKVDKKVEPKSCDKTHTCPPCPAPELLTGPLVFLFPPKPKDTLMISRTPEVTCVVVDVSDEDPEVKFNWYVDGVEVHNAKTKPREEQYNSTYRVVSVLTVLHQDWLNGKEYKCKVSNKALPKPIEKTISKAKGQPREPQVYTLPPSREEMTKNQVSLTCLVKGFYPSDIAVEWESNGQPENNYKTTPPVLDSDGSFFLYSKLTVDKSRWQQGNVFSCSVMHEALHNHYTQKSLSLSP light: DIVMTQSPATLSLSPGERATLSCTSSQSVYHANWLSWFQQKPGQPPKLLIYWASTLAYGVPSRFSGSGSGTDFTLTISSLQPEDAATYYCAGGYGGGRYAFGQGTKVEIKRTVAAPSVFIFPPSDEQLKSGTASVVCLLNNFYPREAKVQWKVDNALQSGNSQESVTEQDSKDSTYSLSSTLTLSKADYEKHKVYACEVTHQGLSSPVTKSFNRGEC
6 | 1.6 | 4.7 | M103205H795-MY387/M103202L889-SK1 (antibody, human IgG1, kappa, Substitutions introduced into M103205H795-SG1, expressed with M103202L889-SK1 as light chain; EU numbering) heavy: QVTLKESGPVLVKPTETLTLTCTVSGIDLSHDDISWVRQAPGKGLEWVGIISYAGSTYYASWAKGRLTISKDTSKNQVVLTMTNMDPVDTATYYCARGVPAYSHGGDLWGQGTLVTVSSASTKGPSVFPLAPSSKSTSGGTAALGCLVKDYFPEPVTVSWNSGALTSGVHTFPAVLQSSGLYSLSSVVTVPSSSLGTQTYICNVNHKPSNTKVDKKVEPKSCDKTHTCPPCPAPELLTGPVVFLFPPKPKDTLMISRTPEVTCVVVDVSDEDPEVKFNWYVDGVEVHNAKTKPREEQYNSTYRVVSVLTVLHQDWLNGKEYKCKVSNKALPKPIEKTISKAKGQPREPQVYTLPPSREEMTKNQVSLTCLVKGFYPSDIAVEWESNGQPENNYKTTPPVLDSDGSFFLYSKLTVDKSRWQQGNVFSCSVMHEALHNHYTQKSLSLSP light: DIVMTQSPATLSLSPGERATLSCTSSQSVYHANWLSWFQQKPGQPPKLLIYWASTLAYGVPSRFSGSGSGTDFTLTISSLQPEDAATYYCAGGYGGGRYAFGQGTKVEIKRTVAAPSVFIFPPSDEQLKSGTASVVCLLNNFYPREAKVQWKVDNALQSGNSQESVTEQDSKDSTYSLSSTLTLSKADYEKHKVYACEVTHQGLSSPVTKSFNRGEC
7 | 1.5 | 4.3 | M103205H795-MY388/M103202L889-SK1 (antibody, human IgG1, kappa, Substitutions introduced into M103205H795-SG1, expressed with M103202L889-SK1 as light chain; EU numbering) heavy: QVTLKESGPVLVKPTETLTLTCTVSGIDLSHDDISWVRQAPGKGLEWVGIISYAGSTYYASWAKGRLTISKDTSKNQVVLTMTNMDPVDTATYYCARGVPAYSHGGDLWGQGTLVTVSSASTKGPSVFPLAPSSKSTSGGTAALGCLVKDYFPEPVTVSWNSGALTSGVHTFPAVLQSSGLYSLSSVVTVPSSSLGTQTYICNVNHKPSNTKVDKKVEPKSCDKTHTCPPCPAPELLTGPIVFLFPPKPKDTLMISRTPEVTCVVVDVSDEDPEVKFNWYVDGVEVHNAKTKPREEQYNSTYRVVSVLTVLHQDWLNGKEYKCKVSNKALPKPIEKTISKAKGQPREPQVYTLPPSREEMTKNQVSLTCLVKGFYPSDIAVEWESNGQPENNYKTTPPVLDSDGSFFLYSKLTVDKSRWQQGNVFSCSVMHEALHNHYTQKSLSLSP light: DIVMTQSPATLSLSPGERATLSCTSSQSVYHANWLSWFQQKPGQPPKLLIYWASTLAYGVPSRFSGSGSGTDFTLTISSLQPEDAATYYCAGGYGGGRYAFGQGTKVEIKRTVAAPSVFIFPPSDEQLKSGTASVVCLLNNFYPREAKVQWKVDNALQSGNSQESVTEQDSKDSTYSLSSTLTLSKADYEKHKVYACEVTHQGLSSPVTKSFNRGEC
8 | 0.48 | 10 | M103205H795-MY380/M103202L889-SK1 (antibody, human IgG1, kappa, Substitutions introduced into M103205H795-SG1, expressed with M103202L889-SK1 as light chain; EU numbering) heavy: QVTLKESGPVLVKPTETLTLTCTVSGIDLSHDDISWVRQAPGKGLEWVGIISYAGSTYYASWAKGRLTISKDTSKNQVVLTMTNMDPVDTATYYCARGVPAYSHGGDLWGQGTLVTVSSASTKGPSVFPLAPSSKSTSGGTAALGCLVKDYFPEPVTVSWNSGALTSGVHTFPAVLQSSGLYSLSSVVTVPSSSLGTQTYICNVNHKPSNTKVDKKVEPKSCDKTHTCPPCPAPELLNGPSVFLFPPKPKDTLMISRTPEVTCVVVDVSEEDPEVKFNWYVDGVEVHNAKTKPREEQYNSTYRVVSVLTVLHQDWLNGKEYKCKVSNKALPKPIEKTISKAKGQPREPQVYTLPPSREEMTKNQVSLTCLVKGFYPSDIAVEWESNGQPENNYKTTPKVLDSDGSFFLYSKLTVDKSRWQQGNVFSCSVMHEALHNHYTQKSLSLSP light: DIVMTQSPATLSLSPGERATLSCTSSQSVYHANWLSWFQQKPGQPPKLLIYWASTLAYGVPSRFSGSGSGTDFTLTISSLQPEDAATYYCAGGYGGGRYAFGQGTKVEIKRTVAAPSVFIFPPSDEQLKSGTASVVCLLNNFYPREAKVQWKVDNALQSGNSQESVTEQDSKDSTYSLSSTLTLSKADYEKHKVYACEVTHQGLSSPVTKSFNRGEC
